Consider 2 sequences from patent publication US20200208162.

Series [1] relates to TLNmir604S3Fw TALEN (encoded by cTNmir604Fw3-01). Kind of series: cell_activity. To be noted: as pair with P2; maize NP2222 immature embryos, Chry5d2 delivery of TALEN and donor; 5.6-24.9% with other strain combinations; printed half-site ends in T ….
Series [2] relates to TLNmir604S3Rv TALEN (encoded by cTNmir604Rv3-01). Description: cell_activity. To be noted: as pair with P1; maize NP2222 immature embryos, Chry5d2 delivery of TALEN and donor; 5.6-24.9% with other strain combinations.

As for “TCCGTGCAGTGCAGTGT (double strand) [MIR604FR3 forward half-site]”, in series [1], the activity turned out to be 33.3%.

Consider “TCCTAAACAAAGGAGGT (double strand) [MIR604FR3 reverse half-site]”, for which the activity in series [2] was 33.3%.
